Test results taken from patent US20090162366A1.

Target: M2G peptide conjugated with BSA (influenza A virus, A/Puerto Rico/8/34 (H1N1))
Assay: peptide-BSA ELISA (++ EC50<10^-9M; + 10^-9M<EC50<10^-8M)

mouse anti-M2 antibody 14C2
EC50: < 1 nM
